Biological target: the molecule itself
Assay: crystal structure; hanging drop, 22 °C; 5 mg/ml PlsX, 1 mM 1-oxohexadecylphosphoramidic acid, 0.08 M Tris-HCl pH 8.0, 0.16 M Li2SO4, 21% PEG 4000, 0.012 mM CYMAL 7, 5% t-butanol; 2.30 Å; two subunits in the asymmetric unit

B1: Bacillus subtilis phosphate acyltransferase PlsX (enzyme, UniProt P71018 1-333, looked up)
chain: MRIAVDAMGGDHAPKAVIDGVIKGIEAFDDLHITLVGDKTTIESHLTTTSDRITVLHADEVIEPTDEPVRAVRRKKNSSMVLMAQEVAENRADACISAGNTGALMTAGLFIVGRIKGIDRPALAPTLPTVSGDGFLLLDVGANVDAKPEHLVQYAIMGSVYSQQVRGVTSPRVGLLNVGTEDKKGNELTKQTFQILKETANINFIGNVEARDLLDDVADVVVTDGFTGNVTLKTLEGSALSIFKMMRDVMTSTLTSKLAAAVLKPKLKEMKMKMEYSNYGGASLFGLKAPVIKAHGSSDSNAVFHAIRQAREMVSQNVAALIQEEVKEEKTDE
notes: Phosphate acyltransferase PlsX, Bacillus subtilis; plsX gene amplified from genomic DNA and inserted into pET28a between NcoI and XhoI; Crystallised with the product analog 1-oxohexadecylphosphoramidic acid (palmitoyl phosphoramide), which was not found in the solved structure; also called B. subtilis PlsX; recombinant PlsX; source: E. coli C43 (DE3), purified (HisTrap HP, gel filtration on …)
stoichiometry N: 2

From article PMC6702220 (Communications Biology, 2019)
